Reference: US20140357844A1 (RINAT NEUROSCIENCE, published 2014)

T1: cynomolgus monkey Trop-2-hFc (cynomolgus monkey, UniProt A0A2K5UE71 27-274)
T1 construct: also called cynoTrop-2; not shown: human Fc
T1 sequence: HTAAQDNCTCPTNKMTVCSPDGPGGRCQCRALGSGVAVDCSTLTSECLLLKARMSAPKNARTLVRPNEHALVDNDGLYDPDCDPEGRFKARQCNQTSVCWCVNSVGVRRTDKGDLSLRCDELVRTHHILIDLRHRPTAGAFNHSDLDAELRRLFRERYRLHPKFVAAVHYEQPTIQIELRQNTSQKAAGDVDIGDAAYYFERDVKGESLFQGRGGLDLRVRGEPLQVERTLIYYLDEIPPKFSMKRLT

T2: human Trop-2-hFc (human, UniProt P09758 27-274)
T2 construct: also called huTrop-2; human Trop-2 human Fc fusion protein; not shown: human Fc
T2 sequence: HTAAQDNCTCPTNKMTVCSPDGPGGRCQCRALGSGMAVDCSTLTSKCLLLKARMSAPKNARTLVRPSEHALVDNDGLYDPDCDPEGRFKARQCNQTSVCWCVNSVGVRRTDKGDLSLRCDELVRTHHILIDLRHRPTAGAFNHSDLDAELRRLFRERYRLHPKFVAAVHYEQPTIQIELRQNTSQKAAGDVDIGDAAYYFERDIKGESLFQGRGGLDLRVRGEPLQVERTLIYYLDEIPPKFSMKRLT

T3: monovalent human Trop2-ECD antigen (human, UniProt P09758 27-274)
T3 construct: also called human Trop2-ECD (Extracellular Domain)
T3 sequence: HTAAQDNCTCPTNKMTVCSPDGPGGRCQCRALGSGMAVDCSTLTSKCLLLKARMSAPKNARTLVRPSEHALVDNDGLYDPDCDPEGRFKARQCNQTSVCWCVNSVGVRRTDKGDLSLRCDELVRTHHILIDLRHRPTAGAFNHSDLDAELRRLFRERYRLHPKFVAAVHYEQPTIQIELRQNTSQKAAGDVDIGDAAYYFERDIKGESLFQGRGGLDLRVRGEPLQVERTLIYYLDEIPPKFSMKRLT

T4: Trop-2 on Trop-2 expressing tumor cells (human, UniProt P09758 27-323)
T4 construct: Endogenous Trop-2 of human tumour cell lines; also called Trop-2 positive tumor cells; A431 (Trop-2+++)
T4 sequence: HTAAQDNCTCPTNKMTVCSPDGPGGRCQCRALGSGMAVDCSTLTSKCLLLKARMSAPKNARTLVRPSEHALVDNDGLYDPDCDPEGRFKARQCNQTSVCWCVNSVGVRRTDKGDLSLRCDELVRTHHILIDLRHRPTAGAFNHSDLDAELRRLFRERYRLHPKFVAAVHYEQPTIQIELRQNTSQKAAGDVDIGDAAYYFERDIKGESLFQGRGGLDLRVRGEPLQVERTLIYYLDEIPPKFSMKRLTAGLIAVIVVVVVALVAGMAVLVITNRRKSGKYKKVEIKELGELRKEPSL


How the values were obtained:
[1] = target: T1, cynomolgus monkey Trop-2-hFc; assay: SPR (Biacore T200), cynomolgus Trop-2-hFc captured by anti-human Fc, Fab as analyte
Description: (§1) The human Trop-2-hFc or cynomolgus monkey Trop-2-hFc proteins were captured on the CM5 EDA chip 37 sensor surface coupled with anti-human Fc.

[2] = target: T2, human Trop-2-hFc; assay: SPR (Biacore T200), human Trop-2-hFc captured by anti-human Fc, Fab as analyte
Description: as §1

[3] = target: T3, monovalent human Trop2-ECD antigen; assay: SPR (ProteOn XPR36), amine-coupled Fab, monovalent human Trop2-ECD as analyte, 25 C;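 note: GLC sensor chip, 3 min association then 15 min buffer dissociation, kinetics fit with a 1:1 Langmuir model, buffer of 10 mM sodium phosphate with 150 mM NaCl and 0.05% Tween-20 at pH 7.4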
Protocol: Analysis of Fab/human Trop2-ECD (Extracellular Domain) interactions was performed using a Bio-Rad Proteon XPR36Surface Plasmon Resonance (SPR) biosensor (Bio-Rad, Hercules, Calif.) equipped with a GLC sensor chip. The assay temperature was 25° C., and the assay buffer was 10 mM Sodium Phosphate, 150 mM NaCl, 0.05% Tween-20, pH 7.4. […] In each analysis cycle, monovalent human Trop2-ECD antigen was flowed at 30 μL/min over the immobilized Fabs for 3 minutes followed by a buffer wash for 15 minutes to monitor dissociation of the Fab/Trop2 complex. The sensor surface was regenerated between analysis cycles, using three 18-second injections of a 2:1 mixture (by volume) of Pierce IgG Elution buffer:4 M NaCl (Pierce, Rockford, Ill.). […] The resulting data were fit to a 1:1 Langmuir binding model using the Proteon evaluation software.

[4] = target: T4, Trop-2 on Trop-2 expressing tumor cells; assay: flow cytometry, A431 cells (Trop-2+++), 0.5 ug antibody per 200,000 cells
Protocol: For A431 cell staining, 200,000 cells were incubated with 0.5 ug antibody in 100 uL binding buffer (PBS (Phosphate Buffered Saline)+0.5% BSA (Bovine Serum Albumin)), followed by incubation with Dylight488-conjugated goat anti-human (Fab′)-2-specific secondary antibody from Jackson immunoresearch Laboratories (West Grove, Pa.).

[5] = target: T4, Trop-2 on Trop-2 expressing tumor cells; assay: flow cytometry, Colo205 cells (Trop-2+), 1 ug antibody per 300,000 cells

Binder	Kd [1] [nM]	Kd [3] [nM]	koff [3] [s⁻¹]	kon [3] [M⁻¹ s⁻¹]	t1/2 [3] [s]	% positive [4] [%]	MFI [4]	% positive [5] [%]	MFI [5]	further results
chimeric 7E6 recombinant Fab fragment (Fab, V domains shown, Recombinant chimeric Fab; also called mouse7E6) VH: QVQLKESGPGLVAPSQSLSITCTVSGFSLTSYGVHWVRQPPGKGLEWLGVIWTGGSTDYNSALMSRLSINKDNSKSQVFLKMNSLQTDDTAMYYCARDGDYDRYTMDYWGQGTSVTVSS VL: DIVLTQSPASLAVSLGQRATISCRASKSVSTSGYSYMHWYQQKPGQPPKLLIYLASNLESGVPARFSGSGSGTDFTLNIHPVEEEDAATYYCQHSRELPYTFGGGTKLEIK	16.5	–	–	–	–	–	–	–	–	–
h7E6_SVG Fab (Fab, V domains shown, also called DG (h7E6_SVG)) VH: QVQLQESGPGLVKPSETLSLTCTVSGGSISSYGVHWIRQPPGKGLEWIGVIWTSGVTDYNSALMGRVTISVDTSKNQFSLKLSSVTAADTAVYYCARDGDYDRYTMDYWGQGTLVTVSS VL: DIVMTQSPDSLAVSLGERATINCRASKSVSTSGYSYMHWYQQKPGQPPKLLIYLASNLESGVPDRFSGSGSGTDFTLTISSLQAEDVAVYYCQHSRELPYTFGQGTKLEIK	7	4.1	0.00069	170000	1020	–	–	–	–	Kd [2]: 4.46 nM; koff [2]: 0.000435 s⁻¹; kon [2]: 97600 M⁻¹ s⁻¹; koff [1]: 0.00189 s⁻¹; kon [1]: 265000 M⁻¹ s⁻¹
h7E6_WT antibody (human IgG1) (antibody, V domains shown, Human IgG1) VH: QVQLQESGPGLVKPSETLSLTCTVSGGSISSYGVHWIRQPPGKGLEWIGVIWTGGSTDYNSALMSRVTISVDTSKNQFSLKLSSVTAADTAVYYCARDGDYDRYTMDYWGQGTLVTVSS VL: DIVMTQSPDSLAVSLGERATINCRASKSVSTSGYSYMHWYQQKPGQPPKLLIYLASNLESGVPDRFSGSGSGTDFTLTISSLQAEDVAVYYCQHSRELPYTFGQGTKLEIK	–	–	–	–	–	94.8	102000	99	1760	–
h7E6-WT recombinant Fab fragment (Fab, V domains shown, Recombinant Fab) VH: QVQLQESGPGLVKPSETLSLTCTVSGGSISSYGVHWIRQPPGKGLEWIGVIWTGGSTDYNSALMSRVTISVDTSKNQFSLKLSSVTAADTAVYYCARDGDYDRYTMDYWGQGTLVTVSS VL: DIVMTQSPDSLAVSLGERATINCRASKSVSTSGYSYMHWYQQKPGQPPKLLIYLASNLESGVPDRFSGSGSGTDFTLTISSLQAEDVAVYYCQHSRELPYTFGQGTKLEIK	44	–	–	–	–	–	–	–	–	Kd [2]: 21.1 nM; koff [2]: 0.00294 s⁻¹; kon [2]: 139000 M⁻¹ s⁻¹; koff [1]: 0.00635 s⁻¹; kon [1]: 144000 M⁻¹ s⁻¹
h7E6_SVG19 Fab (Fab, V domains shown, also called DS (h7E6_SVG19)) VH: QVQLQESGPGLVKPSETLSLTCTVSGGSISSYGVHWIRQPPGKGLEWIGVIWTSGVTDYNSALMGRVTISVDTSKNQFSLKLSSVTAADTAVYYCARDSDYDRYTMDYWGQGTLVTVSS VL: DIVMTQSPDSLAVSLGERATINCRASKSVSTSGYSYMHWYQQKPGQPPKLLIYLASNLESGVPDRFSGSGSGTDFTLTISSLQAEDVAVYYCQHSRELPYTFGQGTKLEIK	–	> 75	0.045	< 600000	15.6	–	–	–	–	–
h7E6_L antibody (human IgG1) (antibody, V domains shown, Human IgG1) VH: QVQLQESGPGLVKPSETLSLTCTVSGGSISSYGVHWIRQPPGKGLEWIGVIWTGGSTDYNSALMSRVTISVDTSKNQFSLKLSSVTAADTAVYYCARDGDYDRYTMDYWGQGTLVTVSS VL: DIVMTQSPDSLAVSLGERATINCRASKSVSTSLYSYMHWYQQKPGQPPKLLIYLASNLESGVPDRFSGSGSGTDFTLTISSLQAEDVAVYYCQHSRELPYTFGQGTKLEIK	–	–	–	–	–	95.1	110000	100	2470	–
h7E6_L recombinant Fab fragment (Fab, V domains shown, Recombinant Fab) VH: QVQLQESGPGLVKPSETLSLTCTVSGGSISSYGVHWIRQPPGKGLEWIGVIWTGGSTDYNSALMSRVTISVDTSKNQFSLKLSSVTAADTAVYYCARDGDYDRYTMDYWGQGTLVTVSS VL: DIVMTQSPDSLAVSLGERATINCRASKSVSTSLYSYMHWYQQKPGQPPKLLIYLASNLESGVPDRFSGSGSGTDFTLTISSLQAEDVAVYYCQHSRELPYTFGQGTKLEIK	2.66	–	–	–	–	–	–	–	–	Kd [2]: 1.15 nM; koff [2]: 0.00015 s⁻¹; kon [2]: 130000 M⁻¹ s⁻¹; koff [1]: 0.000335 s⁻¹; kon [1]: 126000 M⁻¹ s⁻¹
h7E6_N antibody (human IgG1) (antibody, V domains shown, Human IgG1) VH: QVQLQESGPGLVKPSETLSLTCTVSGGSISSYGVHWIRQPPGKGLEWIGVIWTGGSTDYNSALMSRVTISVDTSKNQFSLKLSSVTAADTAVYYCARDGDYDRYTMDYWGQGTLVTVSS VL: DIVMTQSPDSLAVSLGERATINCRASKSVSTSNYSYMHWYQQKPGQPPKLLIYLASNLESGVPDRFSGSGSGTDFTLTISSLQAEDVAVYYCQHSRELPYTFGQGTKLEIK	–	–	–	–	–	98.6	149000	100	2700	–

More lines, main results first:

Kd [1] [nM]	Kd [3] [nM]	koff [3] [s⁻¹]	kon [3] [M⁻¹ s⁻¹]	t1/2 [3] [s]	% positive [4] [%]	MFI [4]	% positive [5] [%]	MFI [5]	Binder	further results
–	> 75	0.013	< 180000	51.6	–	–	–	–	h7E6_SVG22 Fab (Fab, V domains shown, also called DA (h7E6_SVG22)) VH: QVQLQESGPGLVKPSETLSLTCTVSGGSISSYGVHWIRQPPGKGLEWIGVIWTSGVTDYNSALMGRVTISVDTSKNQFSLKLSSVTAADTAVYYCARDADYDRYTMDYWGQGTLVTVSS VL: DIVMTQSPDSLAVSLGERATINCRASKSVSTSGYSYMHWYQQKPGQPPKLLIYLASNLESGVPDRFSGSGSGTDFTLTISSLQAEDVAVYYCQHSRELPYTFGQGTKLEIK	–
–	> 75	0.016	< 210000	43.2	–	–	–	–	h7E6_SVG28 Fab (Fab, V domains shown, also called DL (h7E6_SVG28)) VH: QVQLQESGPGLVKPSETLSLTCTVSGGSISSYGVHWIRQPPGKGLEWIGVIWTSGVTDYNSALMGRVTISVDTSKNQFSLKLSSVTAADTAVYYCARDLDYDRYTMDYWGQGTLVTVSS VL: DIVMTQSPDSLAVSLGERATINCRASKSVSTSGYSYMHWYQQKPGQPPKLLIYLASNLESGVPDRFSGSGSGTDFTLTISSLQAEDVAVYYCQHSRELPYTFGQGTKLEIK	–
–	> 75	0.064	< 850000	10.8	–	–	–	–	h7E6_SVG30 Fab (Fab, V domains shown, also called DE (h7E6_SVG30)) VH: QVQLQESGPGLVKPSETLSLTCTVSGGSISSYGVHWIRQPPGKGLEWIGVIWTSGVTDYNSALMGRVTISVDTSKNQFSLKLSSVTAADTAVYYCARDEDYDRYTMDYWGQGTLVTVSS VL: DIVMTQSPDSLAVSLGERATINCRASKSVSTSGYSYMHWYQQKPGQPPKLLIYLASNLESGVPDRFSGSGSGTDFTLTISSLQAEDVAVYYCQHSRELPYTFGQGTKLEIK	–
0.57	–	–	–	–	–	–	–	–	h7E6_SVGL recombinant Fab fragment (Fab, V domains shown, Recombinant Fab) VH: QVQLQESGPGLVKPSETLSLTCTVSGGSISSYGVHWIRQPPGKGLEWIGVIWTSGVTDYNSALMGRVTISVDTSKNQFSLKLSSVTAADTAVYYCARDGDYDRYTMDYWGQGTLVTVSS VL: DIVMTQSPDSLAVSLGERATINCRASKSVSTSLYSYMHWYQQKPGQPPKLLIYLASNLESGVPDRFSGSGSGTDFTLTISSLQAEDVAVYYCQHSRELPYTFGQGTKLEIK	Kd [2]: 0.25 nM; koff [2]: 3.27e-05 s⁻¹; kon [2]: 131000 M⁻¹ s⁻¹; koff [1]: 7.42e-05 s⁻¹; kon [1]: 130000 M⁻¹ s⁻¹
–	> 75	0.013	< 170000	52.8	–	–	–	–	h7E6_SVG20 Fab (Fab, V domains shown, also called DK (h7E6_SVG20)) VH: QVQLQESGPGLVKPSETLSLTCTVSGGSISSYGVHWIRQPPGKGLEWIGVIWTSGVTDYNSALMGRVTISVDTSKNQFSLKLSSVTAADTAVYYCARDKDYDRYTMDYWGQGTLVTVSS VL: DIVMTQSPDSLAVSLGERATINCRASKSVSTSGYSYMHWYQQKPGQPPKLLIYLASNLESGVPDRFSGSGSGTDFTLTISSLQAEDVAVYYCQHSRELPYTFGQGTKLEIK	–
–	–	–	–	–	96.7	121000	100	2420	h7E6_SVG antibody (human IgG1) (antibody, V domains shown) VH: QVQLQESGPGLVKPSETLSLTCTVSGGSISSYGVHWIRQPPGKGLEWIGVIWTSGVTDYNSALMGRVTISVDTSKNQFSLKLSSVTAADTAVYYCARDGDYDRYTMDYWGQGTLVTVSS VL: DIVMTQSPDSLAVSLGERATINCRASKSVSTSGYSYMHWYQQKPGQPPKLLIYLASNLESGVPDRFSGSGSGTDFTLTISSLQAEDVAVYYCQHSRELPYTFGQGTKLEIK	–
–	–	–	–	–	93.1	107000	100	2420	h7E6_SVGL antibody (human IgG1) (antibody, V domains shown, Human IgG1) VH: QVQLQESGPGLVKPSETLSLTCTVSGGSISSYGVHWIRQPPGKGLEWIGVIWTSGVTDYNSALMGRVTISVDTSKNQFSLKLSSVTAADTAVYYCARDGDYDRYTMDYWGQGTLVTVSS VL: DIVMTQSPDSLAVSLGERATINCRASKSVSTSLYSYMHWYQQKPGQPPKLLIYLASNLESGVPDRFSGSGSGTDFTLTISSLQAEDVAVYYCQHSRELPYTFGQGTKLEIK	–
